Results taken from patent US20180066015A1, “INHIBITORS OF GROWTH FACTOR ACTIVATION ENZYMES” (Washington University, published 2018).
Read-outs that look alike come from different tables or passages of the source. Primed or numbered codes have the meaning given here. *: point of attachment. Kbt = ketobenzothiazole, c1ccc2sc(*)nc2c1; kt = C-terminal ketothiazole, c1csc(*)n1; kt″ = ketothiazole, c1csc(*)n1

T1: Boc-QAR-AMC
T1 sequence (peptide, N-terminal Boc; C-terminal AMC): QAR

T2: matriptase (Charles Craik, UCSF), recombinant (Homo sapiens (Human)) (UniProt Q9Y5Y6)
T2 sequence: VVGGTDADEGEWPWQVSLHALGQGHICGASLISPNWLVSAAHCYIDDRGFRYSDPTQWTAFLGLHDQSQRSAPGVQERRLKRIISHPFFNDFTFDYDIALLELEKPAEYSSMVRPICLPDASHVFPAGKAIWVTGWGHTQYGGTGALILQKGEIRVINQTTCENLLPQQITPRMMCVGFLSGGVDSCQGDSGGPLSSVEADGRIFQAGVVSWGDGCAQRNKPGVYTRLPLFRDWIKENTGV

T3: matriptase (Charles Craik, UCSF), recombinant (Homo sapiens (Human), UniProt Q9Y5Y6)
T3 sequence: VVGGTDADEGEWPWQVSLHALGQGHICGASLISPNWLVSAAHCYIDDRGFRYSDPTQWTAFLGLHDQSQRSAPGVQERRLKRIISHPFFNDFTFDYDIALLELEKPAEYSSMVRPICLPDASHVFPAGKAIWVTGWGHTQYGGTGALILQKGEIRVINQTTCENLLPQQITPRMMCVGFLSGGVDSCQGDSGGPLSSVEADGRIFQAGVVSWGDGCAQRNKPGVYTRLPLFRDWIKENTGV


Key:
[1] = target: Hepatocyte Growth Factor Activator (HGFA) serine protease domain, N-terminal His-tag, recombinant (Homo sapiens (Human)) (UniProt Q04756)
[2] = target: Hepatocyte Growth Factor Activator (HGFA) serine protease domain, N-terminal His-tag, recombinant (Homo sapiens (Human)) (UniProt Q04756); assay: fluorogenic inhibition assay
recombinant thrombin [3] = assay: chromogenic inhibition assay
Factor Xa [4] = assay: chromogenic inhibition assay
Boc-QAR-AMC = target: T1, Boc-QAR-AMC
[5] = target: Ac-Ala-Arg-Leu-P1-ACC, P1 = L-Asp (D)
[6] = target: Ac-Ala-Arg-Leu-P1-ACC, P1 = L-Ser (S)
[7] = target: Ac-Ala-Arg-Leu-P1-ACC, P1 = L-Lys (K)
[8] = target: Ac-Ala-Arg-Leu-P1-ACC, P1 = L-Trp (W)
[9] = target: Ac-Ala-Arg-Leu-P1-ACC, P1 = L-Glu (E)
[10] = target: Ac-Ala-Arg-Leu-P1-ACC, P1 = L-Gln (Q)
[11] = target: Ac-Ala-Arg-Leu-P1-ACC, P1 = L-Thr (T)
[12] = target: Ac-Ala-Arg-Leu-P1-ACC, P1 = L-Tyr (Y)
[13] = target: Ac-Ala-Arg-Leu-P1-ACC, P1 = L-Phe (F)
[14] = target: Ac-Ala-Arg-Leu-P1-ACC, P1 = L-Val (V)
[15] = target: Ac-Ala-Arg-Leu-P1-ACC, P1 = L-Asn (N)
[16] = target: Ac-Ala-Arg-Leu-P1-ACC, P1 = L-Ala (A)
[17] = target: Ac-Ala-Arg-Leu-P1-ACC, P1 = L-Leu (L)
[18] = target: Ac-Ala-Arg-Leu-P1-ACC, P1 = L-Ile (I)
[19] = target: Ac-Ala-Arg-Leu-P1-ACC, P1 = L-Met (M)
[20] = target: Ac-Ala-Arg-Leu-P1-ACC, P1 = L-His (H)
[21] = target: Ac-Ala-Arg-Leu-P1-ACC, P1 = Gly (G)
[22] = target: Ac-Ala-Arg-Leu-P1-ACC, P1 = L-Pro (P)
[23] = target: T2, matriptase (Charles Craik, UCSF), recombinant (Homo sapiens (Human))
[24] = target: T3, matriptase (Charles Craik, UCSF), …; assay: fluorogenic inhibition assay
Description: (§1) Inhibitors (11-pt serial dilutions, 0-20 μM final concentration in reaction) were serially diluted in DMSO (2% DMSO final concentration) and then mixed with either recombinant serine protease domain of HGFA [Z. Han, P. K. Harris, D. E. Jones, R. Chugani, T. Kim, M. Agarwal, W. Shen, S. A. Wildman, J. W. Janetka, Acs Med Chem Lett 2014, 5, 1219-1224], matriptase (Charles Craik, UCSF) or hepsin* (#4776-SE-010, R&D Systems, Minneapolis, Minn.) in black 384 well plates (Corning #3575. Corning, N.Y.). […] The final substrate concentrations for all assays were at the Kₘ for the respective enzymes. Changes in fluorescence (excitation at 380 nm and emission at 460 nm) were measured at room temperature over time in a Biotek Synergy 2 plate reader (Winnoski, Vt.). Using GraphPad Prism version 6.04 software program, (GraphPad Software, San Diego, Calif., www.graphpad.com), a four parameter curve fit was used to determine the inhibitor IC₅₀s from a plot of the mean reaction velocity versus the inhibitor concentration. The IC₅₀ values represent the average of three separate experimental determinations.

[25] = target: T4, Recombinant human hepsin (4776-SE-010, R&D Systems), activated (human, UniProt P05981); assay: fluorogenic inhibition assay
Description: as §1

[26] = target: Recombinant human hepsin (4776-SE-010, R&D Systems), activated (human) (UniProt P05981)
[27] = target: Hepatocyte Growth Factor Activator (HGFA) serine protease domain, N-terminal His-tag, recombinant (Homo sapiens (Human)) (UniProt Q04756); assay: fluorogenic inhibition assay; remark: listed apart in the source
[28] = target: T3, matriptase (Charles Craik, UCSF), …; assay: fluorogenic inhibition assay; remark: listed apart in the source
Description: as §1
(§2) Fluorescent inhibitor and chromogenic proteolytic assays were performed in general accordance with the procedures described in Example 4 for compounds prepared in Examples 5 and 6.

[29] = target: T4, Recombinant human hepsin (4776-SE-010, …); assay: fluorogenic inhibition assay; remark: listed apart in the source
Description: as §1, §2

recombinant thrombin [30] = assay: selectivity inhibition assay
Trypsin = assay: selectivity inhibition assay
Factor Xa [31] = assay: selectivity inhibition assay
[32] = target: Hepatocyte Growth Factor Activator (HGFA) serine protease domain, N-terminal His-tag, recombinant (Homo sapiens (Human)) (UniProt Q04756); assay: fluorogenic inhibition assay; remark: listed apart in the source

Molecule	IC50 of enzyme inhibition [1]	Ki [2]	Ki (recombinant thrombin [3])	Ki (Factor Xa [4])	IC50 of enzyme inhibition [23]	Ki [24]	Ki [25]	IC50 of enzyme inhibition [26]	further results
Ac-KQFR(SEQ ID NO: 4)-kt (peptide)	470 nM	58 nM	> 20000 nM	78.8 nM					
Recombinant human hepsin (4776-SE-010, R&D Systems), activated (from UniProt P05981) (enzyme)									Km of fluorogenic substrate (Boc-QAR-AMC): 156 µM; % activity, P1 position [5]: 0%; % activity, P1 position (Ac-Ala-Arg-Leu-Arg-ACC): 100%; % activity, P1 position [6]: 0.2%; % activity, P1 position [7]: 2.34%; % activity, P1 position [8]: 0.7%; % activity, P1 position [9]: 0.13%; % activity, P1 position [10]: 0%; % activity, P1 position [11]: 0.45%; % activity, P1 position [12]: 0.3%; % activity, P1 position [13]: 0.12%; % activity, P1 position [14]: 0%; % activity, P1 position [15]: 0%; % activity, P1 position [16]: 0.49%; % activity, P1 position [17]: 0.03%; % activity, P1 position [18]: 0.08%; % activity, P1 position [19]: 0%; % activity, P1 position [20]: 0.17%; % activity, P1 position [21]: 0.07%; % activity, P1 position [22]: 0.04%
Ac-SKLR-kt (SMILES CC(=O)N[C@@H](CO)C(=O)N[C@@H](CCCCN)C(=O)N[C@@H](CC(C)C)C(=O)N[C@@H](CCCNC(=N)N)C(=O)c1nccs1) [Ac-SKLR(SEQ ID NO: 10)-kt]	560 nM	81 nM	> 20000 nM	3060 nM	48 nM	58 nM	1.2 nM		
Ac-WQLR-kt (SMILES CC(=O)N[C@@H](Cc1c[nH]c2ccccc12)C(=O)N[C@@H](CCC(N)=O)C(=O)N[C@@H](CC(C)C)C(=O)N[C@@H](CCCNC(=N)N)C(=O)c1nccs1) [Ac-WQLR(SEQ ID NO: 3)-kt]	471 nM	65 nM			49 nM	32.4 nM	0.21 nM	1 nM	
Ac-KQLR-Kbt (SMILES CC(=O)N[C@@H](CCCCN)C(=O)N[C@@H](CCC(N)=O)C(=O)N[C@@H](CC(C)C)C(=O)N[C@@H](CCCNC(=N)N)C(=O)c1nc2ccccc2s1) [Ac-KQLR(SEQ ID NO: 1)-Kbt]		30 nM							fold change of potency against thiazole 5 [27]: 2 fold; Ki [28]: 0.55 nM; Ki [29]: 0.09 nM; Ki (recombinant thrombin [30]): > 20000 nM; Ki (Trypsin): 0.24 nM; Ki (Factor Xa [31]): 129 nM
Ac-RQLR-kt (SMILES CC(=O)N[C@@H](CCCNC(=N)N)C(=O)N[C@@H](CCC(N)=O)C(=O)N[C@@H](CC(C)C)C(=O)N[C@@H](CCCNC(=N)N)C(=O)c1nccs1) [Ac-RQLR(SEQ ID NO: 6)-kt]	270 nM	60 nM	> 20000 nM	8.1 nM	1 nM	0.32 nM	0.28 nM	1 nM	
Ac-SHLR-kt (SMILES CC(=O)N[C@@H](CO)C(=O)N[C@@H](Cc1c[nH]cn1)C(=O)N[C@@H](CC(C)C)C(=O)N[C@@H](CCCNC(=N)N)C(=O)c1nccs1) [Ac-SHLR(SEQ ID NO: 11)-kt]	1800 nM	332 nM			560 nM	104 nM	0.6 nM	5 nM	
Ac-KQLR-{kt″} (SMILES CC(=O)N[C@@H](CCCCN)C(=O)N[C@@H](CCC(N)=O)C(=O)N[C@@H](CC(C)C)C(=O)N[C@@H](CCCNC(=N)N)C(=O)c1nccs1) [Ac-KQLR(SEQ ID NO: 1)-kt]	445 nM	70 nM	> 20000 nM	170 nM	5 nM	1.6 nM	0.19 nM	2 nM	Ki [32]: 53 nM
Ac-SKFR-kt (SMILES CC(=O)N[C@@H](CO)C(=O)N[C@@H](CCCCN)C(=O)N[C@@H](Cc1ccccc1)C(=O)N[C@@H](CCCNC(=N)N)C(=O)c1nccs1) [Ac-SKFR(SEQ ID NO: 13)-kt]	520 nM	57 nM	> 2000 nM	530 nM	34 nM	3.03 nM	8.5 nM	51 nM	
Ac-WRLR-kt (SMILES CC(=O)N[C@@H](Cc1c[nH]c2ccccc12)C(=O)N[C@@H](CCCNC(=N)N)C(=O)N[C@@H](CC(C)C)C(=O)N[C@@H](CCCNC(=N)N)C(=O)c1nccs1) [Ac-WRLR(SEQ ID NO: 9)-kt]	275 nM	21 nM			31 nM	5.5 nM	0.21 nM	0.3 nM	
Ac-SRLR-kt (SMILES CC(=O)N[C@@H](CO)C(=O)N[C@@H](CCCNC(=N)N)C(=O)N[C@@H](CC(C)C)C(=O)N[C@@H](CCCNC(=N)N)C(=O)c1nccs1) [Ac-SRLR(SEQ ID NO: 15)-kt]	303 nM	24 nM			24 nM	5.8 nM	0.68 nM	5 nM	
Ac-WKLR-kt (SMILES CC(=O)N[C@@H](Cc1c[nH]c2ccccc12)C(=O)N[C@@H](CCCCN)C(=O)N[C@@H](CC(C)C)C(=O)N[C@@H](CCCNC(=N)N)C(=O)c1nccs1) [Ac-WKLR(SEQ ID NO: 12)-kt]	320 nM	56 nM			97 nM	8.6 nM	0.55 nM	4 nM	
matriptase (Charles Craik, UCSF), recombinant (enzyme) VVGGTDADEGEWPWQVSLHALGQGHICGASLISPNWLVSAAHCYIDDRGFRYSDPTQWTAFLGLHDQSQRSAPGVQERRLKRIISHPFFNDFTFDYDIALLELEKPAEYSSMVRPICLPDASHVFPAGKAIWVTGWGHTQYGGTGALILQKGEIRVINQTTCENLLPQQITPRMMCVGFLSGGVDSCQGDSGGPLSSVEADGRIFQAGVVSWGDGCAQRNKPGVYTRLPLFRDWIKENTGV									Km of fluorogenic substrate (Boc-QAR-AMC): 93 µM
